Target: Ronin (protein product of the cDNA clone from the human ES cell cDNA expression library) (UniProt Q96EK4)
UniProt Q96EK4, sequence (Q96EK4 whole entry): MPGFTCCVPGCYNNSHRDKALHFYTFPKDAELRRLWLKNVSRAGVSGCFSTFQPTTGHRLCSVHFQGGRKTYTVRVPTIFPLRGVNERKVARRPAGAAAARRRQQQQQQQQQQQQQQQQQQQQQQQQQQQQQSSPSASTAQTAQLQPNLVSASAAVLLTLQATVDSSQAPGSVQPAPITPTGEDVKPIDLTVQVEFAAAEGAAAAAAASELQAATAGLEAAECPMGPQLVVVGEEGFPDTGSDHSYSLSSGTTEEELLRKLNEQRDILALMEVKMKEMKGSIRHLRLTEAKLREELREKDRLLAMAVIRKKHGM

Substance: Caspase-3 (as used in the in vitro transcription/translation Caspase-3 cleavage assay)
- in vitro transcription/translation Caspase-3 cleavage assay: proved to be an authentic target of Caspase-3 in further analyses

Source: patent publication US20110201109
